Measured values as given in the supplement of paper PMC12042874.
± gives the uncertainty stated by the source.

assay: amyloid nucleation score (Sup35N fusion, yeast selection) (log enrichment); library NNK3; higher = more nucleation; inactive = no reads after selection
How it was run: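 In psi-negative yeast, Sup35N fusions carrying peptides of 20 random codons were induced with 100 μM copper sulfate for 24 hours. The cells then grew 7 days at 30°C on medium lacking adenine and uracil, and plasmid inserts from input and output were Illumina-sequenced, excluding sequences with under 100 input reads. Nucleation score is the DiMSum log enrichment of output over input reads, centred on the mode score of non-aggregating sequences.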

| Substance | amyloid nucleation score |
| --- | --- |
| LYVFRCHLVVNDLNATNCSR | inactive |
| GLEVLVISIGAWLSLTLSFQ | inactive |
| YCDLY | inactive |
| NIICTWCGGFMRLNLNV | 1.9 ± 0.073 |
| YKQHYRRSRHCIKHYVGGSE | inactive |
| CLSGRCRASMLPLGRVSKCD | inactive |
| AISYFSSWGAM | 0.485 ± 0.24 |
| VCGAVSKPLWIRCTVDPRGR | inactive |
| KMQCPNYACGCKDCVYTNFY | inactive |
| IVSTSYNWDDACYDRTLQGG | inactive |
| NIKGFRVDKYVETL | inactive |
| IRTIIQKKMWACDHVFGSPA | inactive |
| WANMQETFWRMWTRPVLTCG | inactive |
| INCLRSLTNCINSCRPIIVL | inactive |
| LRLGIEMNTIGTLNMGPLSL | inactive |
| LFDFYRNSVTD | inactive |
| PKCPCTWSRTYCVVLWLPRR | inactive |
| RVVYL | -0.667 ± 1.8 |
| CLYNGMWSCVEWNSKGSMHL | 1.26 ± 0.069 |
| QTMLIM | inactive |
| SMRSRCNFFTVCSAWLSFWE | inactive |
| RKDLCDFSYLHGDPGAKPEL | inactive |
| TYQVILSFYDLWFGRSAYCQ | inactive |

| Substance | amyloid nucleation score |
| --- | --- |
| IFFVYLLSANIGCYEWDVVP | 0.821 ± 0.12 |
| NMYSISTLHRKLADPVCSV | inactive |
| SREDCGGI | inactive |
| RSRRFGYSAAISFTIGNLNS | 1.28 ± 0.13 |
| YTLPGIQAGFWARCVSHTRL | inactive |
| SGSKKCAFRHVRIHFRLTAG | inactive |
| TYVIFCYTVSHDDSHRTLYN | 2.19 ± 0.084 |
| LVNIDLFNDYRAVCGLLTRD | inactive |
| YSRTDSQGMTNEMVNLGVDV | inactive |
| KWRYLFDMSW | inactive |
| WCSSWSRILTQVACVRHRKW | 0.926 ± 0.14 |
| TCLWARSPVLEDFEYGLHGS | inactive |
| KPNFEPSLAW | inactive |
| PFVSVSVCTSLKGCSR | 1.8 ± 0.1 |
| LPGCSTWFGVFFIHDFNLTL | 1.69 ± 0.091 |
| LRARPLLITFGVEWGSASDP | 0.465 ± 0.22 |
| MRYLDLYGRARNVRIRVRRT | inactive |
| LVYSDCHRIISHWFFRYTWQ | inactive |
| WNVLPATMMRFIRDMTGH | inactive |
| ANIGKIVKEHRQQSIQHCID | inactive |
| HSLHMGRKAMQYEYTQPAGI | inactive |
| STMDSIYQFL | inactive |
| LDNISVLIIFL | 1.34 ± 0.11 |

| Substance | amyloid nucleation score |
| --- | --- |
| YVNSNWNNISAQASNSFSGR | inactive |
| VSKESILGGRCVM | inactive |
| NMFVILRFVMHKIKMFNRF | 1.51 ± 0.079 |
| SIGVRTRLKLCC | inactive |
| GQKDCYFLIMYIREVLNRYT | inactive |
| HLLEVFKDSCRTRGRMLLWG | inactive |
| YQVRV | 0.056 ± 0.33 |
| QRYSLHDINEDYRYDWVNGL | inactive |
| ICYRRPTSSMP | inactive |
| CLQSQFLNFE | inactive |
| NTDVVCMLNWLLTW | inactive |
| YEYWYFCRDDNNFVYLIR | inactive |
| SIEMRLCQDWTQLESLT | -0.252 ± 0.66 |
| LSELSRSARVLMFQLFMSRC | 1.87 ± 0.081 |
| VGRPTASGLRNCMWSLSWCV | inactive |
| FAEYISQ | 0.293 ± 0.23 |
| NSNFFL | inactive |
| RQLTLSRITNLSLK | inactive |
| LLWLLIWEFHT | inactive |
| LGFSVYSLA | inactive |
| FAYLF | inactive |
| RELTRRTYAVANYRLSMSRL | inactive |
| PFHRIPISVSLGYAFGTRCS | inactive |

| Substance | amyloid nucleation score |
| --- | --- |
| MKLWFNTARLDMKVSKTVYS | inactive |
| YGGDWCARTPCLSRVNSVKP | inactive |
| ISVYHVLTHKL | 1.49 ± 0.12 |
| IDVRATNPVRAVETD | inactive |
| LFEGDQDGMRVCSHHMVFMI | inactive |
| GNVQIDASIKKSNGRWYGSV | -0.063 ± 0.31 |
| LKVYR | inactive |
| GNCHDVWVYVLCTVGMSLMR | inactive |
| TLCSHYYVV | inactive |
| MELSGSIMRIEMLYFFMRHK | inactive |
| IVCISLCLAAEKQPSGCEFG | 2.01 ± 0.068 |
| GQEGSRN | 0.186 ± 0.53 |
| CQQIWRLGQCVQLLFCTRSK | 1.31 ± 0.11 |
| LINKHNRVMYLAICA | inactive |
| RMNNLSGEQKQLCDLSLAVR | inactive |
| GVRHLYVPMFHFVIMGRWHH | inactive |
| AVNMLESFFGGVPLRSLCFV | inactive |
| LGGLCL | inactive |
| FGLNSCTSYKYQLSMSGFST | -0.491 ± 0.66 |
| LVYRMMGSWVGPIRVYFNML | inactive |
| DMLAYADMLHNFFNSSVHFW | inactive |
| RHCWVPGCDRQCKWYFEGTS | inactive |
| CVSIKIASPPF | 0.43 ± 0.3 |

| Substance | amyloid nucleation score |
| --- | --- |
| YLICLVWKELLARAHIAELC | 0.28 ± 0.2 |
| HSINV | inactive |
| MDLMPSYSTWKLFFKAI | inactive |
| AVVSIVVLRDKRTFLGRLYL | 1.53 ± 0.087 |
| WAFHFGCCNDGMVR | inactive |
| ISFCYALCCNKMKRLLARCK | inactive |
| LEQYEKLRGSPKVNRRMCNQ | inactive |
| TFRYCTVLMFAVSFWQFHRC | inactive |
| NESFDCPFAGLYRKQYIWQT | inactive |
| WSSFPFCSRVYVQTWIDLTN | 1.52 ± 0.14 |
| WLVYVVLRM | inactive |
| GVAIAYHEFVDCSFFNYNIV | 2.38 ± 0.054 |
| RSRILMYYYKISLFYRIKVM | inactive |
| CFSTPCLCQSNELANIGSPT | inactive |
| RDRCISFEYAVQTCHYECRP | -0.294 ± 0.74 |
| CFMSNIDIFLDRCMRKGCNH | 2.08 ± 0.072 |
| SLGYHLYRHARVCYRMCDIW | inactive |
| RLYFYDEKCIGCHGSNSLTQ | inactive |
| YFMCREMALILEHLCEAGWC | inactive |
| PVAMAYAVSSVVDMASN | inactive |
| MTCWTTYNGTDIEGKGGINN | inactive |
| VGYAGVIIEKKYHCPKKSAF | inactive |
| YAETPRFIRFY | -0.137 ± 0.78 |

| Substance | amyloid nucleation score |
| --- | --- |
| FWQSIYDGMGSVIFHHGFTQ | 0.434 ± 0.14 |
| HCEFRSQSDTNVVNLCGQGW | inactive |
| VFISRKCWRNHNF | inactive |
| WDAPMSNVDRL | inactive |
| RDFNMDTVRAVWISQILNSI | inactive |
| STLILNRLYCFNLISLASLS | 0.56 ± 0.2 |
| DLFGCPDLMMYTELIMLYW | inactive |
| FDNVISILPPYFTSFSG | inactive |
| FTWLSMYYCLRANERK | 1.33 ± 0.15 |
| PINETRSEESLVGSRGM | inactive |
| HFILFSSYPFYF | inactive |
| TRVTS | inactive |
| SSNDVVTSYRILCKVSTKAT | -0.622 ± 0.66 |
| PHHSRYAFYGNPTLAI | inactive |
| LNYDSSTRLNVLW | inactive |
| SYSSMCLPKNTKAHASWC | inactive |
| DEYATRIGYWCCK | 1.7 ± 0.084 |
| NPVRSKWYKVCCDNVGVYMD | inactive |
| NWNIGPRKLCKWRCR | inactive |
| AFMNWVARRKTRWGGLYGGN | inactive |
| NMNCCLKMSVYLYRLLVHM | inactive |
| WCQCRKLFWVYAHGEHFSSC | 1.09 ± 0.12 |
| KMTFSWSLHHYCKP | 1.08 ± 0.19 |

| Substance | amyloid nucleation score |
| --- | --- |
| VGWIHYCQGTYKRMFGITGR | inactive |
| IARKQPLLSMATTSSQVFRA | inactive |
| RLRGVGIIVGGASQSSSQLR | inactive |
| FNVPS | 0.673 ± 0.42 |
| SLIDRIIVKPKVWTGGKNYP | inactive |
| KYFPVAQYGRIWVRRPRGQV | inactive |
| GCNREGTYSRPVLTATNGG | -0.152 ± 0.93 |
| PGSASYSLVRGQDYYLTIYC | inactive |
| TQGYVFKELAGVSRYTEA | inactive |
| KTMDPILQFFERSTASLLLI | inactive |
| YYNVAMRCRSHHTRMSIFWC | inactive |
| FELRGTLGG | 0.026 ± 0.37 |
| MNTACS | inactive |
| YFVFKIRKDVELLVYI | inactive |
| VLRCTSPIES | inactive |
| FQYRLTVEGMSWWTGGW | inactive |
| NLIWTVHLVVTSVISDLCVG | inactive |
| KLICKERYVVYSVILVLKEL | inactive |
| VRPFPFTWSSSNKEV | inactive |
| MSLGFALVSILVCF | inactive |
| WNHLDERANELCCN | inactive |
